Test results published in article PMC4785404, “The three-dimensional structure of Clostridium absonum 7α-hydroxysteroid dehydrogenase: new insights into the conserved arginines for NADP(H) recognition” (Scientific Reports, 2016).
“And” between values parts separate entries of the source, which are not always exact repeats. Identical values can stand only once.

B1: 7α-hydroxysteroid dehydrogenase from Clostridium absonum (enzyme, UniProt G9FRD7 1-262, looked up)
chain: MKRLEGKVAIVTSSTRGIGRASAEALAKEGALVYLAARSEELANEVIADIKKQGGVAKFVYFNAREEETYTSMVEKVAEAEGRIDILVNNYGGTNVNLDKNLTAGDTDEFFRILKDNVQSVYLPAKAAIPHMEKVGGGSIVNISTIGSVVPDISRIAYCVSKSAINSLTQNIALQYARKNIRCNAVLPGLIGTRAALENMTDEFRDSFLGHVPLNRVGRPEDIANAVLYYASDDSGYVTGMIHEVAGGFALGTPQYSEYCPR
notes: 7α-hydroxysteroid dehydrogenase (CA 7α-HSDH), Clostridium absonum; the gene was cloned into pGEX-6p-1; Crystallised with NADP+ and TCDCA; also called CA 7α-HSDH; 7α-HSDH; source: E. coli BL21 (DE3), GST-fused from pGEX-6p-1, purified (monoQ, superdex 75)

Key:
[1] = tested on: NC(=O)c1ccc[n+]([C@@H]2O[C@H](COP(=O)(O)OP(=O)(O)OC[C@H]3O[C@@H](n4cnc5c(N)ncnc54)[C@H](OP(=O)(O)O)[C@@H]3O)[C@@H](O)[C@H]2O)c1; experiment: purified protein; details: assay conditions by cited earlier methods; co-substrate not given; SD in parentheses; crystal structure of complex with TCDCA also solved; varied: cofactor
[2] = molecular target: the molecule itself; experiment: SEC; purified CA 7α-HSDH in aqueous solution; standard proteins of 669, 440, 158, 75, 44, 29 and 13.7 kDa; the dimer fraction of the first run was collected and run again; the tetramer fractions were checked by MS

Molecule	Km [1]	kcat [1] [s⁻¹]	kcat/Km [1] [M⁻¹ s⁻¹]	stoichiometry N [2]
CA 7α-HSDH (Clostridium sardiniense)	0.34 (0.01) mM	13.8	40100	–
B1	–	–	–	2 and 4
